Measured values as given in PMC9482650, “Quantitative fragmentomics allow affinity mapping of interactomes” (Nature Communications, 2022).

Key:
Assay in all cases: holdup assay
Parameters in all cases: key: below the threshold = too weak to quantify, mostly under pKd 3.1 to 4
PARD6G, Q9BYG4 = biological target: T1, PARD6G, Q9BYG4
T1 sequence (Q9BYG4 153-261, limits assumed, looked up): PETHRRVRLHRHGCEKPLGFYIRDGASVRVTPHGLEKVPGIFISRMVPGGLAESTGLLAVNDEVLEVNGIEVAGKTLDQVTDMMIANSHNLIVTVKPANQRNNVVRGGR

RGS3, P49796-9 = biological target: RGS3, P49796-9
RGS3, P49796-9, sequence (P49796 other isoform, or with tags, fused parts or gaps): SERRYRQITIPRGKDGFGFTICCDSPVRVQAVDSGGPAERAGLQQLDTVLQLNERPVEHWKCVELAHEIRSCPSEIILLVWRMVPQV

SDCBP_1, O00560 = biological target: SDCBP_1, O00560
SDCBP_1, O00560, sequence (O00560 111-198): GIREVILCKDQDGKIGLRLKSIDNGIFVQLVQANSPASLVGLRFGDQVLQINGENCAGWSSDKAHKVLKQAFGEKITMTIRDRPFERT

LNX2_1, Q8N448 = biological target: T2, LNX2_1, Q8N448
T2 sequence (Q8N448 228-328, limits assumed, looked up): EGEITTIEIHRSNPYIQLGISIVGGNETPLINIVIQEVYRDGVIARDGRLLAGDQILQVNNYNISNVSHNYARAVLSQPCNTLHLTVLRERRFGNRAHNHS

PDZD2_5, O15018 = biological target: T3, PDZD2_5, O15018
T3 sequence (O15018 2617-2716, limits assumed, looked up): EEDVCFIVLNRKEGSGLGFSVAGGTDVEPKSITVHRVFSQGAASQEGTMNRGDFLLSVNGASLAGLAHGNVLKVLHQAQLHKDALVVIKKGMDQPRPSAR

MAGI1_6, Q96QZ7 = biological target: MAGI1_6, Q96QZ7
MAGI1_6, Q96QZ7, sequence (Q96QZ7 1146-1238): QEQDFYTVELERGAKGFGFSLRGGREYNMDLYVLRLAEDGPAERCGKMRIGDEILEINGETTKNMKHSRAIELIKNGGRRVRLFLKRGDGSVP

MAGI1_5, Q96QZ7 = biological target: MAGI1_5, Q96QZ7
MAGI1_5, Q96QZ7, sequence (Q96QZ7 986-1098): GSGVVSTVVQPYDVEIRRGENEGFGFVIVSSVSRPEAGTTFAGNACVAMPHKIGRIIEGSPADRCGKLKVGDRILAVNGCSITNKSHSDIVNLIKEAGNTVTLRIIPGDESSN

PDZRN3_2, Q9UPQ7 = biological target: T4, PDZRN3_2, Q9UPQ7
T4 sequence (Q9UPQ7 414-513, limits assumed, looked up): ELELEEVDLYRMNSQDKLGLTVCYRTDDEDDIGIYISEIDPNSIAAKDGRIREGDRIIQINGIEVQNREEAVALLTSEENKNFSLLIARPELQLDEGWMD

DLG2_1, Q15700 = biological target: DLG2_1, Q15700
PDLIM3, Q53GG5 = biological target: T5, PDLIM3, Q53GG5
T5 sequence (Q53GG5 1-94, limits assumed, looked up): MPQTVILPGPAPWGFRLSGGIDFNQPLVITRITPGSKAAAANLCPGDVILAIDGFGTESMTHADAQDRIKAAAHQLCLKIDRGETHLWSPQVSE

MAGI3_4, Q5TCQ9 = biological target: MAGI3_4, Q5TCQ9
MAGI3_4, Q5TCQ9, sequence (Q5TCQ9 716-815): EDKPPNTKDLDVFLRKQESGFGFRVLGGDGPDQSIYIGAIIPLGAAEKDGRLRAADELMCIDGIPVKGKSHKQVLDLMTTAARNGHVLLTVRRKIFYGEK

PDZD2_4, O15018 = biological target: T6, PDZD2_4, O15018
T6 sequence (O15018 723-823, limits assumed, looked up): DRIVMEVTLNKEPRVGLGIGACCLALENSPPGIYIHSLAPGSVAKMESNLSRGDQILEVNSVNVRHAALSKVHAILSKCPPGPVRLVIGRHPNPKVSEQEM

MAGI3_6, Q5TCQ9 = biological target: MAGI3_6, Q5TCQ9
MAGI3_6, Q5TCQ9, sequence (Q5TCQ9 1014-1103): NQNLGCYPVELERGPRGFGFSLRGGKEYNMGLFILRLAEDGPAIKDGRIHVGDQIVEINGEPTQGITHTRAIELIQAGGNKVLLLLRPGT

DLG5_2, Q8TDM6 = biological target: DLG5_2, Q8TDM6
DLG5_2, Q8TDM6, sequence (Q8TDM6 714-800): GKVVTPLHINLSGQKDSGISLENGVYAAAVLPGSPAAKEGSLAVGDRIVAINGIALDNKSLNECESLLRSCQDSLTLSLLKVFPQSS

TJP3_1, O95049 = biological target: T7, TJP3_1, O95049
T7 sequence (O95049 6-103, limits assumed, looked up): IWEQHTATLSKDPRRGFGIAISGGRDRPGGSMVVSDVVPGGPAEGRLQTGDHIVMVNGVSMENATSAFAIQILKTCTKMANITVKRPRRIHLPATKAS

SHROOM3, Q8TF72 = biological target: T8, SHROOM3, Q8TF72
T8 sequence (Q8TF72 20-120, limits assumed, looked up): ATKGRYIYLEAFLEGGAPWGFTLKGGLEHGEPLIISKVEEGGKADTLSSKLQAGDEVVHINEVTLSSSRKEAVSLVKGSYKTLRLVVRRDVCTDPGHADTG

CNKSR1, Q969H4 = biological target: T9, CNKSR1, Q969H4
T9 sequence (Q969H4 191-295, limits assumed, looked up): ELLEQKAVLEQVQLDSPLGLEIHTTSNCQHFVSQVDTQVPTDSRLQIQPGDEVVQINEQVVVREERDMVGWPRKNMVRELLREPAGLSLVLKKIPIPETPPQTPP

PTPN13_2, Q12923 = biological target: PTPN13_2, Q12923
PTPN13_2, Q12923, sequence (Q12923 1363-1462): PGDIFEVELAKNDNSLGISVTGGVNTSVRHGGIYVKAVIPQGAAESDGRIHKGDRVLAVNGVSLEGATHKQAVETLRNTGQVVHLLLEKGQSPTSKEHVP

MPP1, Q00013 = biological target: T10, MPP1, Q00013
T10 sequence (Q00013 66-162, limits assumed, looked up): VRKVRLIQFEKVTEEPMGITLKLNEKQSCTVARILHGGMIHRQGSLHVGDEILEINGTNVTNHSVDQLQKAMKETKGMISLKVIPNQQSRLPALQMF

SHANK2, Q9UPX8 = biological target: T11, SHANK2, Q9UPX8
T11 sequence (Q9UPX8 621-730, limits assumed, looked up): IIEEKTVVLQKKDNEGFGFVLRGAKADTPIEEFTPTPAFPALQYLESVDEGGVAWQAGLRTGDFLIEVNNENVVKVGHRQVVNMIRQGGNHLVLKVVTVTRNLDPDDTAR

PDLIM4, P50479 = biological target: PDLIM4, P50479
PDLIM4, P50479, sequence (P50479 1-83): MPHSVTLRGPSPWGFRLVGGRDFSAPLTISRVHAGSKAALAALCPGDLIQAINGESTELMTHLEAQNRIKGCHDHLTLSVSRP

INTU, Q9ULD6 = biological target: T12, INTU, Q9ULD6
T12 sequence (Q9ULD6 180-273, limits assumed, looked up): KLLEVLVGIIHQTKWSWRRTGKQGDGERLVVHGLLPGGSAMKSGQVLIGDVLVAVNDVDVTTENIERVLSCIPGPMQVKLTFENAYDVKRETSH

PDZRN4_2, Q6ZMN7 = biological target: PDZRN4_2, Q6ZMN7
PDZRN4_2, Q6ZMN7, sequence (Q6ZMN7 389-498): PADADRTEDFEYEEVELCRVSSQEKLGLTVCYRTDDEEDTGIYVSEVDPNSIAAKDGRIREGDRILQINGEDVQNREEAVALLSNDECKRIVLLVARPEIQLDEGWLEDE

LNX2_4, Q8N448 = biological target: T13, LNX2_4, Q8N448
T13 sequence (Q8N448 595-690, limits assumed, looked up): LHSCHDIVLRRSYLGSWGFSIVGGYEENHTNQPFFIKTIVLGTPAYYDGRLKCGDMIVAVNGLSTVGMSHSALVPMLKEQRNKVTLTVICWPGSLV

[1] = modified: acetyl on K at position -1 from the C-terminal residue
[2] = plain residues with an end cap or a label only (N-terminal biotin on a linker: (peg)3)
[3] = modified: phospho on S at position -3 from the C-terminal residue

Measured: pKd

DEDQHTQITKV [PTEN_Ac, P60484]
3.98: DLG2_1, Q15700; [1]
below the threshold: PARD6G, Q9BYG4; [1] | RGS3, P49796-9; [1] | SDCBP_1, O00560; [1] | LNX2_1, Q8N448; [1] | PDZD2_5, O15018; [1] | MAGI1_6, Q96QZ7; [1] | PDZRN3_2, Q9UPQ7; [1] | PDLIM3, Q53GG5; [1] | MAGI3_4, Q5TCQ9; [1] | PDZD2_4, O15018; [1] | DLG5_2, Q8TDM6; [1] | TJP3_1, O95049; [1] | SHROOM3, Q8TF72; [1] | PTPN13_2, Q12923; [1] | MPP1, Q00013; [1] | PDLIM4, P50479; [1] | INTU, Q9ULD6; [1] | PDZRN4_2, Q6ZMN7; [1] | LNX2_4, Q8N448; [1]
4.84: MAGI1_5, Q96QZ7; [1]
4.08: MAGI3_6, Q5TCQ9; [1]
3.97: SHANK2, Q9UPX8; [1]
3.66: CNKSR1, Q969H4; [1]

YDEPTTTTSVPL [SARS-Cov2-3a, P0DTC3]
3.76: MAGI1_5, Q96QZ7; [2]
4.19: RGS3, P49796-9; [2]
below the threshold: PARD6G, Q9BYG4; [2] | SDCBP_1, O00560; [2] | LNX2_1, Q8N448; [2] | PDZD2_5, O15018; [2] | MAGI1_6, Q96QZ7; [2] | PDZRN3_2, Q9UPQ7; [2] | DLG2_1, Q15700; [2] | PDLIM3, Q53GG5; [2] | MAGI3_4, Q5TCQ9; [2] | PDZD2_4, O15018; [2] | MAGI3_6, Q5TCQ9; [2] | DLG5_2, Q8TDM6; [2] | TJP3_1, O95049; [2] | SHROOM3, Q8TF72; [2] | CNKSR1, Q969H4; [2] | PTPN13_2, Q12923; [2] | MPP1, Q00013; [2] | SHANK2, Q9UPX8; [2] | PDLIM4, P50479; [2] | PDZRN4_2, Q6ZMN7; [2] | LNX2_4, Q8N448; [2]
3.86: INTU, Q9ULD6; [2]

RRVRKLPSTTL [RPS6KA1_-3P, Q15418]
3.63: PDLIM4, P50479; [3]
below the threshold: PARD6G, Q9BYG4; [3] | RGS3, P49796-9; [3] | SDCBP_1, O00560; [3] | LNX2_1, Q8N448; [3] | PDZD2_5, O15018; [3] | MAGI1_6, Q96QZ7; [3] | MAGI1_5, Q96QZ7; [3] | PDLIM3, Q53GG5; [3] | MAGI3_4, Q5TCQ9; [3] | PDZD2_4, O15018; [3] | MAGI3_6, Q5TCQ9; [3] | DLG5_2, Q8TDM6; [3] | TJP3_1, O95049; [3] | SHROOM3, Q8TF72; [3] | PTPN13_2, Q12923; [3] | MPP1, Q00013; [3] | SHANK2, Q9UPX8; [3] | INTU, Q9ULD6; [3] | PDZRN4_2, Q6ZMN7; [3] | LNX2_4, Q8N448; [3]
3.72: PDZRN3_2, Q9UPQ7; [3]
3.69: DLG2_1, Q15700; [3]
3.49: CNKSR1, Q969H4; [3]
